This note sets out measurements from PMC7431817.

The target in experiment [1] is EGFR-GFP (epidermal growth factor receptor fused to GFP) on F1-4 cells (UniProt P00533). The experiment is described as follows: flow cytometry on cells; F1-4 cells treated with 2 uM latrunculin-B at 37°C for 10 min, then concentration series of TAMRA-EGF, 1 h on ice; Hill equation fit. Background: Flow cytometry measures light scatter and fluorescence of single cells or particles in a stream.

Experiment [2] shares this target. Put plainly: flow cytometry on cells; F1-4 cells incubated with a concentration series of EGF for 24 h on ice; Hill equation fit; the paper finds internalized EGF and questions equilibrium at this time.
For experiment [3] the target is unchanged. Put plainly: flow cytometry on cells; cells treated with 5 uM lapatinib at 37°C for 1 h and labelled with TAMRA-EGF in the continued presence of the inhibitor, 1 h on ice; Hill equation fit, apparent Kd; all cells.
Experiment [4] shares this target. Put plainly: flow cytometry on cells; cells treated with 5 uM lapatinib at 37°C for 1 h and labelled with TAMRA-EGF in the continued presence of the inhibitor, 1 h on ice; Hill equation fit, apparent Kd; low expresser gate.
For experiment [5] the target is unchanged. The experiment is described as follows: flow cytometry on cells; cells treated with 5 uM erlotinib at 37°C for 1 h and labelled with TAMRA-EGF in the continued presence of the inhibitor, 1 h on ice; Hill equation fit, apparent Kd; high expresser gate.
Experiment [6] shares this target. The experiment is described as follows: flow cytometry on cells; cells treated with 5 uM lapatinib at 37°C for 1 h and labelled with TAMRA-EGF in the continued presence of the inhibitor, 1 h on ice; Hill equation fit, apparent Kd; high expresser gate.
For experiment [7] the target is unchanged. The experiment is described as follows: flow cytometry on cells; two-fold dilution series of TAMRA-EGF in PBS + 1% BSA on suspended F1-4 cells, 1 h on ice, measured without washing; Hill equation fit, apparent Kd; untreated (control) cells, all cells.
Experiment [8] has the same target. The experiment is described as follows: flow cytometry on cells; cells treated with 5 uM erlotinib at 37°C for 1 h and labelled with TAMRA-EGF in the continued presence of the inhibitor, 1 h on ice; Hill equation fit, apparent Kd; medium expresser gate.
For experiment [9] the target is unchanged. The experiment is described as follows: flow cytometry on cells; cells treated with 5 uM lapatinib at 37°C for 1 h and labelled with TAMRA-EGF in the continued presence of the inhibitor, 1 h on ice; Hill equation fit, apparent Kd; medium expresser gate.
Experiment [10] shares this target. The experiment is described as follows: flow cytometry on cells; global fit of the paper's model (conformations of ECD and kinase domain, dimerization, ligand binding to monomers and dimers) to all 12 TAMRA-EGF binding data sets (untreated, erlotinib, lapatinib; three gates and all cells), 1 h on ice; K2-K9 shared; ligand constants in nM, receptor dimerization constants in number of receptors/cell.

pKd: −log10 of the molar value.

Consider “Tetramethylrhodamine-labeled EGF (ligand)”, for which the pKd in experiment [1] was 8.09; in experiment [2] it was 8.28; in experiment [3] it was 8.31; in [4], 8.20; in [5], 8.77; in [6] it was 8.31. Moreover, the pKd was 8.47 in experiment [7], 8.74 in experiment [8] and 8.29 in experiment [9]. In experiment [10], this substance registered a K3, Kd of EGF binding to a monomer with extended ECD of 1.3 nM. In [10], this substance had a K5, Kd of binding of the first EGF to a dimer with inactive, symmetric kinase dimer of 95 nM. This substance also had a K6, Kd of binding of the second EGF to a dimer with inactive, symmetric kinase dimer in experiment [10] of 0.45 nM. Also, the K9, Kd of binding of the second EGF to a dimer with active, asymmetric kinase dimer in experiment [10] was determined as 2.96 nM.

What is called pKd is −log10 of the Kd, conventionally taken in molar units.
